Changes are numbered by the printed parent chain. Read-outs that look alike come from different tables or passages of the source.
Tests used:
[1] = biological target: T1, human PDGF-BB (human, UniProt P01127 82-190); assay: SPR (BIAcore T200); PDGF-BB coupled on CM3 chip, antibody injected (Example 52); design: t½: unit not given here
T1 construct: also called huPDGF-BB

[2] = biological target: T1, human PDGF-BB; assay: cell-based or functional assay
[3] = biological target: T2, human ANG2-RBD-mouse Fc-region fusion (human, UniProt O15123 275-496, limits assumed); assay: SPR (BIAcore T200); ANG2-RBD-mouse Fc captured, antibody injected (Example 52)
T2 construct: domain: RBD; also called human ANG2-RBD-murine Fc-region fusion; not shown: mouse Fc-region
T2 sequence (looked up): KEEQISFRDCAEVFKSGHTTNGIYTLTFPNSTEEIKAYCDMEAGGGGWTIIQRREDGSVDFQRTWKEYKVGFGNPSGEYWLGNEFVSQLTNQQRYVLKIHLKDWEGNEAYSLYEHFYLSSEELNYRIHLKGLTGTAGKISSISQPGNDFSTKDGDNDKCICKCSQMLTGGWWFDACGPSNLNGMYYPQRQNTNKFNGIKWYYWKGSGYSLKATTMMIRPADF

[4] = biological target: T3, ANG2 (UniProt O15123 68-496, limits assumed); assay: cell-based or functional assay
T3 sequence (looked up): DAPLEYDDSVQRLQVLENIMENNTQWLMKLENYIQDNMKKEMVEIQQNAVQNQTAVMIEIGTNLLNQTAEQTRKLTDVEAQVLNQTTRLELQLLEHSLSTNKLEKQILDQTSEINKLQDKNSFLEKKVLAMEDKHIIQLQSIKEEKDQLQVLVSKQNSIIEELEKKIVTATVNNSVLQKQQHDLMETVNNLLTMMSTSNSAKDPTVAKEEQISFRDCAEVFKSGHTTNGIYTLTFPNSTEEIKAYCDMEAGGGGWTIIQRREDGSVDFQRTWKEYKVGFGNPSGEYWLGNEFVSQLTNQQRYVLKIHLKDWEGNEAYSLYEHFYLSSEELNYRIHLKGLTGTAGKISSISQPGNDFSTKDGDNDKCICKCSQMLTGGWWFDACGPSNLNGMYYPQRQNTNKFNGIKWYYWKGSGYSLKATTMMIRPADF

[5] = biological target: T1, human PDGF-BB; assay: cell-based or functional assay; remark: listed apart in the source
[6] = biological target: T4, human IL-1beta (human, UniProt P01584 117-269); assay: cell-based or functional assay
[7] = biological target: T4, human IL-1beta; assay: cell-based or functional assay; remark: listed apart in the source
[8] = biological target: T4, human IL-1beta; assay: cell-based or functional assay; remark: listed apart in the source
[9] = biological target: T4, human IL-1beta; assay: cell-based or functional assay; remark: listed apart in the source
[10] = biological target: T4, human IL-1beta; assay: cell-based or functional assay; remark: listed apart in the source
[11] = biological target: T4, human IL-1beta; assay: SPR inhibition; 10 nM human IL-1beta pre-incubated with antibody, injected over immobilised human IL-1RI (competitor)
Description: All experiments were performed at 25° C. using HBS-P (10 mM His, 140 mM NaCl, 0.05% Tween 20 pH 7.4) as running and dilution buffer. Human IL-1RI was immobilized on a Series S CM5 Sensor Chip (GE Healthcare) using standard amine coupling chemistry. […] The surface was regenerated by injecting 10 mM NaOH for 60 sec at a flow rate of 5 μl/min. Bulk refractive index differences were corrected by subtracting the response obtained from a mock surface.

[12] = biological target: T4, human IL-1beta; assay: SPR (BIAcore); antibody captured by anti-Fc, IL-1beta injected
Description: All experiments were performed at 25° C. using HBS-P (10 mM His, 140 mM NaCl, 0.05% Tween 20 pH 7.4) as running and dilution buffer. Anti-human or anti-mouse Fc antibodies were immobilized on a Series S CM5 Sensor Chip (GE Healthcare) using standard amine coupling chemistry. […] The dissociation phase was monitored for 600 sec by washing with running buffer. […] The surface was regenerated by injecting 3 M MgCl2 (for anti-human Fc antibody) or 10 mM Glycine pH 1.5 (for anti-mouse Fc antibody) for 60 sec at a flow rate of 5 μl/min. Bulk refractive index differences were corrected by subtracting the response obtained from a mock surface. Blank injections were subtracted (double referencing). The derived curves were fitted to a 1:1 Langmuir binding model using the BIAevaluation software.

[13] = biological target: T5, cynomolgus IL-1beta (cynomolgus, UniProt P79182 117-268); assay: as above
[14] = biological target: T4, human IL-1beta; assay: as above; remark: listed apart in the source
[15] = biological target: T5, cynomolgus IL-1beta; assay: as above; remark: listed apart in the source
[16] = biological target: T4, human IL-1beta; assay: SPR (BIAcore T200); antibody captured by anti-human Fc, human IL-1beta injected (Example 52); design: t 1/2: unit not given here
[17] = biological target: T4, human IL-1beta; assay: SPR (BIAcore); Fab captured by anti-human Fab, IL-1beta injected (Example 55)
Description: All experiments were performed at 25° C. using HBS-P (10 mM His, 140 mM NaCl, 0.05% Tween 20 pH 7.4) as running and dilution buffer. Anti-human Fc or anti-human Fab antibodies were immobilized on a Series S CM5 Sensor Chip (GE Healthcare) using standard amine coupling chemistry. […] The dissociation phase was monitored for 600 sec by washing with running buffer. The surface was regenerated by injecting 3 M MgCl2 (for anti-human Fc antibody) or 10 mM Glycine pH 1.5 (for anti-mouse Fc antibody) for 60 sec at a flow rate of 5 μl/min. Bulk refractive index differences were corrected by subtracting the response obtained from a mock surface. Blank injections were subtracted (double referencing). The derived curves were fitted to a 1:1 Langmuir binding model using the BIAevaluation software.

T1 sequence (P01127 82-190 limits assumed): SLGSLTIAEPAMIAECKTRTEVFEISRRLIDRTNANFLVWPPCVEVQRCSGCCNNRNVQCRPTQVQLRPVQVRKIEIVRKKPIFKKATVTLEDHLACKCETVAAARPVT

B1: antibody 0144 (bispecific antibody, human IgG1, kappa, L234A L235A)
chain 1: SYVLTQPPSVSVAPGQTARITCGGNNIGSKSVHWYQQKPGQAPVLVVYDTSDRPSGIPERFSGSNSGNTATLTISRVEAGDEADYYCQVWDSSSDHWVFGGGTKLTVLSSASTKGPSVFPLAPSSKSTSGGTAALGCLVKDYFPEPVTVSWNSGALTSGVHTFPAVLQSSGLYSLSSVVTVPSSSLGTQTYICNVNHKPSNTKVDKKVEPKSCDKTHTCPPCPAPEAAGGPSVFLFPPKPKDTLMASRTPEVTCVVVDVSHEDPEVKFNWYVDGVEVHNAKTKPREEQYNSTYRVVSVLTVLAQDWLNGKEYKCKVSNKALGAPIEKTISKAKGQPREPQVYTLPPCRDELTKNQVSLWCLVKGFYPSDIAVEWESNGQPENNYKTTPPVLDSDGSFFLYSKLTVDKSRWQQGNVFSCSVMHEALHNAYTQKSLSLSPGK
chain 2: not shown
chain 3: not shown
chain 4: not shown
notes: also called anti-PDGF-B/ANG2 antibody; clone 0144-0004
- Kd [1]: 3000 pM
- koff [1]: 0.000215 s⁻¹
- kon [1]: 83100 M⁻¹ s⁻¹
- t½ [1]: 53
- IC50 Proliferation 3T3 [2]: 20 pM
- IC50 Proliferation human pericytes [2]: 30 pM
- Kd [3]: 17000 pM
- koff [3]: 0.00155 s⁻¹
- kon [3]: 90600 M⁻¹ s⁻¹
- t½ [3]: 7.43 min
- ANG2 specific pTie2-ELISA, activity against the anti-ANG2/VEGF antibody reported in WO 2014/09465 [4]: 6 fold
- IC50 Migration-Inhibition human pericytes [5]: 60 pM
- IC50 Phospho-Inhibition human pericytes [5]: 55 pM

B2: Canakinumab (antibody, V domains shown)
VH: QVQLVESGGGVVQPGRSLRLSCAASGFTFSVYGMNWVRQAPGKGLEWVAIIWYDGDNQYYADSVKGRFTISRDNSKNTLYLQMNGLRAEDTAVYYCARDLRTGPFDYWGQGTLVTVSS
VL: EIVLTQSPDFQSVTPKEKVTITCRASQSIGSSLHWYQQKPDQSPKLLIKYASQSFSGVPSRFSGSGSGTDFTLTINSLEAEDAAAYYCHQSSSLPFTFGPGTKVDIKR
- IC50, inhibition of ICAM-1 expression upon IL-1beta stimulation of HUVEC cells [6]: 9020 pM
- IC50, inhibition of ICAM-1 expression upon IL-1beta stimulation of A549 cells [7]: 310 pM
- EC50, reduction of IL-6 expression upon IL-1beta stimulation of A549 cells [8]: 120 pM
- EC50, reduction of IL-6 expression upon IL-1beta stimulation of A549 cells [9]: 0.0864 µg/mL
- IC50, inhibition of proliferation of D10 cells [10]: 1990 pM
- IC50 [11]: 1600 pM
- Kd [12]: 20 pM
- koff [12]: 5.2e-05 s⁻¹
- kon [12]: 2.78e+06 M⁻¹ s⁻¹
- Kd [13]: 13200 pM
- koff [13]: 0.0284 s⁻¹
- kon [13]: 2.15e+06 M⁻¹ s⁻¹

B3: H34 + C52aS mutations (antibody, V domains shown)
VH: EVQLQQSGPELVKTGASVKISCKASGYSFTGYYMHWVKQSHGKSLEWIGYISSYNAFTTYNQRFRGKATFTVDTSSSTAYMQFNSLTSEDSAVYYCVRSDYYGTSLYWGQGTTLTVSS
VL: QIVLTQSPAIMSASLGEEITLTCSASSSVSYMHWSQQKSGSSPKLLIYSTSNLASGVPSRFSGSGSGTFYSLTISSVEAEDAADYYCHQWSNYYTFGGGTKLEIK
- Kd [14]: 400 pM
- koff [14]: 0.000645 s⁻¹
- kon [14]: 1.6e+06 M⁻¹ s⁻¹
- Kd [15]: 510 pM
- koff [15]: 0.000728 s⁻¹
- kon [15]: 1.43e+06 M⁻¹ s⁻¹
- Kd [12]: 400 pM
- koff [12]: 0.000645 s⁻¹
- kon [12]: 1.6e+06 M⁻¹ s⁻¹
- Kd [13]: 510 pM
- koff [13]: 0.000728 s⁻¹
- kon [13]: 1.43e+06 M⁻¹ s⁻¹

B4: antibody 0085 FAB (Fab, V domains shown)
VH: EVQLVESGGGLVQPGGSLRLSCAASGFTFSSYWMSWVRQAPEKGLEWVSTISDGGGLTYYADSVKGRFTISRDNAKNSLYLQMNSLRAEDTAVYYCAESGGYTDWLFGYWGQGTLVTVSS
VL: not shown
- IC50 Proliferation human pericytes [2]: 12 pM
- IC50 Migration-Inhibition human pericytes [5]: 270 pM

B5: huH34-2 (antibody, V domains shown)
VH: QVQLVQSGAEVKKPGASVKVSCKASGYTFTGYYMHWVRQAPGQGLEWIGYISSYNAFTTYNQKFRGRATFTVDTSISTAYMELSRLRSDDTAVYYCVRSDYYGTSLYWGQGTLVTVSS
VL: EIVLTQSPATLSLSPGERATLSCRASSSVSYMHWSQQKPGQAPRLLIYSTSNLASGIPARFSGSGSGTDFTLTISSLEPEDFAVYYCHQWSNYYTFGQGTKLEIK
notes: Humanized antibody expressed in HEK cells; also called huH34-2 bivalent; humanized version of H34
- IC50, inhibition of ICAM-1 expression upon IL-1beta stimulation of HUVEC cells [6]: 300 pM
- Kd [16]: 50 pM
- koff [16]: 0.000115 s⁻¹
- kon [16]: 2.43e+06 M⁻¹ s⁻¹
- t 1/2 [16]: 101
- IC50, inhibition of ICAM-1 expression upon IL-1beta stimulation of A549 cells [7]: 230 pM
- EC50, reduction of IL-6 expression upon IL-1beta stimulation of A549 cells [8]: 110 pM
- IC50, inhibition of proliferation of D10 cells [10]: 830 pM
- Kd [12]: 60 pM
- koff [12]: 0.00011 s⁻¹
- kon [12]: 1.93e+06 M⁻¹ s⁻¹
- Kd [13]: 50 pM
- koff [13]: 0.000118 s⁻¹
- kon [13]: 2.2e+06 M⁻¹ s⁻¹

B6: huH34-2 Fab (Fab, V domains shown)
VH: B5 VH
VL: B5 VL
notes: also called huH34-2 Fab-fragment
- Kd [17]: 60 pM
- koff [17]: 0.000111 s⁻¹
- kon [17]: 1.81e+06 M⁻¹ s⁻¹

B7: antibody 0032 (bispecific antibody, V domains shown)
VH 1: EVQLVESGGGLVQPGGSLRLSCAASGYDFTHYGMNWVRQAPGKGLEWVGWINTYTGEPTYAADFKRRFTFSLDTSKSTAYLQMNSLRAEDTAVYYCAKYPYYYGTSHWYFDVWGQGTLVTVSS
VL 1: DIQLTQSPSSLSASVGDRVTITCSASQDISNYLNWYQQKPGKAPKVLIYFTSSLHSGVPSRFSGSGSGTDFTLTISSLQPEDFATYYCQQYSTVPWTFGQGTKVEIK
VH 2: B5 VH
VL 2: B5 VL
notes: CrossMab; only variable domains are tied to it; also called anti-IL-1beta/VEGF antibody
- Kd [16]: 120 pM
- koff [16]: 0.000305 s⁻¹
- kon [16]: 2.49e+06 M⁻¹ s⁻¹
- t 1/2 [16]: 38
- EC50, reduction of IL-6 expression upon IL-1beta stimulation of A549 cells [9]: 0.0387 µg/mL

B8: huH34-3 (antibody, V domains shown)
VH: B5 VH with N55S
VL: B5 VL
notes: VH = 11 and VL = 16 read by analogy with huH34-2
- IC50, inhibition of ICAM-1 expression upon IL-1beta stimulation of A549 cells [7]: 2230 pM
- EC50, reduction of IL-6 expression upon IL-1beta stimulation of A549 cells [8]: 1090 pM
- Kd [12]: 150 pM
- koff [12]: 0.000302 s⁻¹
- kon [12]: 1.97e+06 M⁻¹ s⁻¹
- Kd [13]: 220 pM
- koff [13]: 0.000491 s⁻¹
- kon [13]: 2.21e+06 M⁻¹ s⁻¹

B9: huH34-1 (antibody, V domains shown)
VH: B5 VH with I48M, N55S, A56G, N61A, R65Q, A68V, F70M, V72R, V97A
VL: B5 VL
notes: VH = 01 and VL = 16 read by analogy with huH34-2 (VH 06, VL 16); Humanized
- IC50, inhibition of ICAM-1 expression upon IL-1beta stimulation of A549 cells [7]: > 7000 pM
- EC50, reduction of IL-6 expression upon IL-1beta stimulation of A549 cells [8]: 5520 pM
- Kd [12]: 1020 pM
- koff [12]: 0.00151 s⁻¹
- kon [12]: 1.49e+06 M⁻¹ s⁻¹
- Kd [13]: 1310 pM
- koff [13]: 0.00212 s⁻¹
- kon [13]: 1.61e+06 M⁻¹ s⁻¹

From patent publication US20170240629A1 (Hoffmann-La Roche, published 2017)
